The target of assay [1] is T1, human sodium-dependent phosphate transporter 2B (NaPi2b) (human, UniProt O95436 1-690).
T1 construct: UniProt ID is given as 095436 [sic]; also called hNaPi2b; Hu NaPi2b
T1 sequence: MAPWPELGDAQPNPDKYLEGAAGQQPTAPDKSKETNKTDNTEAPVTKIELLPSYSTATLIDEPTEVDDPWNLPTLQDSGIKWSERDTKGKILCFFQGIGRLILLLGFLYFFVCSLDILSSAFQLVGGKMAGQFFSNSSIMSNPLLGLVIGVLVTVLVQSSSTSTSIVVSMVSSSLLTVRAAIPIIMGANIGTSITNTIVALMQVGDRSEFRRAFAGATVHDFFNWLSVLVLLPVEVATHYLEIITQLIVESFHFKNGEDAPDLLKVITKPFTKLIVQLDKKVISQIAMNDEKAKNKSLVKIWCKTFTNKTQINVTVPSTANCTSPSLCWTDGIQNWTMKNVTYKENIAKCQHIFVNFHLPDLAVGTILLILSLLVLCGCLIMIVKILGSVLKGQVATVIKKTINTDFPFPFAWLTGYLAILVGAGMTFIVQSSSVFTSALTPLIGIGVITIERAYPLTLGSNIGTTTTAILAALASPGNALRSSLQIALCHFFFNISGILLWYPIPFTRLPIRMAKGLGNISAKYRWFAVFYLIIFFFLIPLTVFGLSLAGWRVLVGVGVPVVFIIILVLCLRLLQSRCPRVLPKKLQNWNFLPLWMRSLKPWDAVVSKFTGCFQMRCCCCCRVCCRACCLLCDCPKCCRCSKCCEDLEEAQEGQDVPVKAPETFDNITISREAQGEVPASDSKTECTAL
The assay is described as follows: flow cytometry on H441 cells (endogenous NaPi2b), 24 h at 4 C, anti-human IgG Fc AF647, APC-A GeoMean. (In general: Flow cytometry measures light scatter and fluorescence of single cells or particles in a stream.)
Protocol: (§1) Cells were maintained under standard culture conditions (37° C./5% CO₂) until assay set-up. […] Cells were removed from culture vessels using Cell Dissociation Buffer (Invitrogen, Waltham, MA), seeded at 50,000 cells/well in conical-bottom 96-well plates, and treated with test antibody or antibody-drug conjugate for 24 hours at 4° C. to prevent internalization. […] Following incubation and washing, fluorescence was detected by flow cytometry on a BD LSRFortessa™ Cell Analyzer (BD Biosciences, Franklin Lake, NJ) with 1,000 minimum events collected per well.

In assay [2] the target is T1, human sodium-dependent phosphate …. The assay is described as follows: flow cytometry on HCC-78 cells (endogenous NaPi2b), 24 h at 4 C, anti-human IgG Fc AF647, APC-A GeoMean.
Protocol: as §1
The target is the same in assay [3]. Put plainly: cell-based or functional assay.
A further assay has as its target T2, cynomolgus monkey NaPi2b (cynomolgus monkey, UniProt O95436 1-690 (human entry)).
T2 construct: also called Cyno NaPi2b; Cy NaPi2b
T2 chain: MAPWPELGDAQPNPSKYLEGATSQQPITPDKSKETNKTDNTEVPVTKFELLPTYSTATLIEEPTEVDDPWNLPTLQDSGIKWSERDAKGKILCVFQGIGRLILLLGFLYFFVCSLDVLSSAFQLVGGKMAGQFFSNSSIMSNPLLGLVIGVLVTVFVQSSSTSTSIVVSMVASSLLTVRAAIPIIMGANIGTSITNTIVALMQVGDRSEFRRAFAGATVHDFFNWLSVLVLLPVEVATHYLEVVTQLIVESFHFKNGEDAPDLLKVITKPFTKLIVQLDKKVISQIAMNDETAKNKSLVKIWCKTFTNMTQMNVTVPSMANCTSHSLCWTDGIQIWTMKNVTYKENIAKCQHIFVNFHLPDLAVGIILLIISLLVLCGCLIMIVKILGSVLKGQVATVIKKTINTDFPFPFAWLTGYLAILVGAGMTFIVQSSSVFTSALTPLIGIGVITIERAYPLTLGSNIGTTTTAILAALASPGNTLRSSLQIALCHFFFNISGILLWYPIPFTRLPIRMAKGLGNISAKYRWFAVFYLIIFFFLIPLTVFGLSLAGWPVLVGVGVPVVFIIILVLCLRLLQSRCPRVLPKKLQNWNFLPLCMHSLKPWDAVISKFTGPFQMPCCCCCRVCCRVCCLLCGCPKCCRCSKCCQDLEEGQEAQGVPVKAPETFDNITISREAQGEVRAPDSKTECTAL
The assay is described as follows: flow cytometry on HEK293-6e cells transiently transfected with cynomolgus NaPi2b, antibody 18-24 h at 4 C, anti-human IgG Fc AF647.

B1: v38591 (humanized anti-NaPi2b antibody, wild-type Fc) (antibody, human IgG1, kappa)
heavy: not shown
light: DVQMTQSPSSLSASVGDRVTITCRASQDVYSYLNWYQQKPGKAVKLLIYYTSRLQSGVPSRFSGSGSGTDYTLTISSLQPEDFATYYCQQYNIFPWTFGQGTKLEIKRTVAAPSVFIFPPSDEQLKSGTASVVCLLNNFYPREAKVQWKVDNALQSGNSQESVTEQDSKDSTYSLSSTLTLSKADYEKHKVYACEVTHQGLSSPVTKSFNRGEC
notes: also called v38591 Wild-type; H1L2
Turning to B1, the EC50 (read off the curve) (usually the concentration that produces a half-maximal response) in assay [1] was around 0.6 nM; in assay [2], around 3 nM.

B2: v22277 (palivizumab, anti-RSV negative control, heterodimeric Fc) (antibody, human IgG1, kappa)
heavy 1: GQVTLRESGPALVKPTQTLTLTCTFSGFSLSTSGMSVGWIRQPPGKALEWLADIWWDDKKDYNPSLKSRLTISKDTSKNQVVLKVTNMDPADTATYYCARSMITNWYFDVWGAGTTVTVSSASTKGPSVFPLAPSSKSTSGGTAALGCLVKDYFPEPVTVSWNSGALTSGVHTFPAVLQSSGLYSLSSVVTVPSSSLGTQTYICNVNHKPSNTKVDKKVEPKSCDKTHTCPPCPAPELLGGPSVFLFPPKPKDTLMISRTPEVTCVVVDVSHEDPEVKFNWYVDGVEVHNAKTKPREEQYNSTYRVVSVLTVLHQDWLNGKEYKCKVSNKALPAPIEKTISKAKGQPREPQVYVYPPSRDELTKNQVSLTCLVKGFYPSDIAVEWESNGQPENNYKTTPPVLDSDGSFALVSKLTVDKSRWQQGNVFSCSVMHEALHNHYTQKSLSLSPG
heavy 2: not shown
light: GDIQMTQSPSTLSASVGDRVTITCKSQLSVGYMHWYQQKPGKAPKLLIYDTSKLASGVPSRFSGSGSGTEFTLTISSLQPDDFATYYCFQGSGYPFTFGGGTKLEIKRTVAAPSVFIFPPSDEQLKSGTASVVCLLNNFYPREAKVQWKVDNALQSGNSQESVTEQDSKDSTYSLSSTLTLSKADYEKHKVYACEVTHQGLSSPVTKSFNRGEC
notes: also called neg control
Turning to B2, in assay [3], the “Internalized Fluorescence Fold-Over Palivizumab, HCC-78, 5 hrs, 10 nM” value was found to be 1 fold; the “Internalized Fluorescence Fold-Over Palivizumab, HCC-78, 24 hrs, 10 nM” value came out at 1 fold; the “Internalized Fluorescence Fold-Over Palivizumab, NCI-H441, 5 hrs, 10 nM” value turned out to be 1 fold; the “Internalized Fluorescence Fold-Over Palivizumab, NCI-H441, 24 hrs, 10 nM” value was 1 fold. Moreover, the binding result with cynomolgus monkey NaPi2b is recorded as “no binding (tested: 200 nM)”.

The record behind these values is patent US20260232827A1 (Zymeworks, published 2026).
